In patent US5747322:
Positions count from the first letter of the chain named. In names and notes the source's numbering stands. One block for each binder: values may come before it.

Tests used:
Z-GPR-pNA = target: T1, Z-GPR-pNA
T1 sequence (peptide, N-terminal Z; C-terminal pNA): GPR

Suc-AAP-Ala-pNA = target: T2, Suc-AAP-Ala-pNA
T2 sequence (peptide, N-terminal Suc; C-terminal pNA): AAPA

Suc-AAP-Leu-pNA = target: T3, Suc-AAP-Leu-pNA
T3 sequence (peptide, N-terminal Suc; C-terminal pNA): AAPL

[1] = target: bovine calf skin collagen (type I collagen) (bovine) (UniProt P02453)

- kcat /Km (Z-GPR-pNA): 0.87 µM⁻¹ min⁻¹
- kcat /Km (Suc-AAP-Lys-pNA): 1.4 µM⁻¹ min⁻¹
- kcat /Km (Suc-AAP-Met-pNA): 1.4 µM⁻¹ min⁻¹
- kcat /Km (Suc-AAP-Gln-pNA): 0.33 µM⁻¹ min⁻¹
- kcat /Km (Suc-AAP-Ala-pNA): 0.052 µM⁻¹ min⁻¹
- kcat /Km (Suc-AAP-Leu-pNA): 3.1 µM⁻¹ min⁻¹
- kcat /Km (Suc-AAP-Arg-pNA): 55 µM⁻¹ min⁻¹
- kcat /Km (Suc-AAP-Orn-pNA): 0.288 µM⁻¹ min⁻¹
- kcat /Km (Suc-AAP-Phe-pNA): 1.4 µM⁻¹ min⁻¹
B1: crab collagenase D226G/G189D (enzyme)
chain: IVGGVEAVPNSWPHQAALFIDDMYFCGGSLISPEWILTAAHCMDGAGFVDVVLGAHNIREDEATQVTIQSTDFTVHENYNSFVISNDIAVIRLPSPVTLTAAIATVGLPSTDVGVGTVVTPTGWGLPSDSALGISDVLRQVDVPIMSNADCDAVYGIVTDGNICIDSTGGKDTCNGDSGGPLNYNGLTYGITSFGAAAGCEAGYPGAFTRVTYFLDWIQTQTGITP

- kcat /Km (Z-GPR-pNA): 0.43 µM⁻¹ min⁻¹
- kcat /Km (Suc-AAP-Lys-pNA): 3.6 µM⁻¹ min⁻¹
- kcat /Km (Suc-AAP-Met-pNA): 4.2 µM⁻¹ min⁻¹
- kcat /Km (Suc-AAP-Gln-pNA): 1.1 µM⁻¹ min⁻¹
- kcat /Km (Suc-AAP-Ala-pNA): 0.13 µM⁻¹ min⁻¹
- kcat /Km (Suc-AAP-Leu-pNA): 9.1 µM⁻¹ min⁻¹
- kcat /Km (Suc-AAP-Arg-pNA): 80 µM⁻¹ min⁻¹
- kcat /Km (Suc-AAP-Orn-pNA): 0.47 µM⁻¹ min⁻¹
- kcat /Km (Suc-AAP-Phe-pNA): 9.5 µM⁻¹ min⁻¹
- collagen cleavage (3/4, 1/4 fragmentation pattern) [1]: > 50%
B2: recombinant crab serine collagenase 1 (mature, wild type) (enzyme)
chain: B1 chain with D172G, G206D

- kcat /Km (Z-GPR-pNA): 0.022 µM⁻¹ min⁻¹
- kcat /Km (Suc-AAP-Lys-pNA): 0.024 µM⁻¹ min⁻¹
- kcat /Km (Suc-AAP-Met-pNA): 2.9 µM⁻¹ min⁻¹
- kcat /Km (Suc-AAP-Gln-pNA): 0.33 µM⁻¹ min⁻¹
- kcat /Km (Suc-AAP-Ala-pNA): 0.019 µM⁻¹ min⁻¹
- kcat /Km (Suc-AAP-Leu-pNA): 4.8 µM⁻¹ min⁻¹
- kcat /Km (Suc-AAP-Arg-pNA): 2.9 µM⁻¹ min⁻¹
- kcat /Km (Suc-AAP-Orn-pNA): 0.023 µM⁻¹ min⁻¹
- kcat /Km (Suc-AAP-Phe-pNA): 6.9 µM⁻¹ min⁻¹
B3: crab collagenase D226G (enzyme)
chain: B1 chain with D172G
